Reference: doi:10.1101/2020.06.02.095570 (bioRxiv, 2020)

B1: dehydrodolichyl diphosphate synthase (DHDDS), full-length human (enzyme)
chain: MSWIKEGELSLWERFCANIIKAGPMPKHIAFIMDGNRRYAKKCQVERQEGHSQGFNKLAETLRWCLNLGILEVTVYAFSIENFKRSKSEVDGLMDLARQKFSRLMEEKEKLQKHGVCIRVLGDLHLLPLDLQELIAQAVQATKNYNKCFLNVCFAYTSRHEISNAVREMAWGVEQGLLDPSDISESLLDKCLYTNRSPHPDILIRTSGEVRLSDFLLWQTSHSCLVFQPVLWPEYTFWNLFEAILQFQMNHSVLQKARDMYAEERKRQQLERDQATVTEQLLREGLQASGDAQLRRTRLHKLSARREERVQGFLQALELKRADWLARLGTASA

What was measured:
cross-linking = target: the molecule itself; assay: cross-linking
[1] = target: B1; assay: crystal structure

B1: binds (cross-linking).

B2: sNgBRΔ167*-175* (soluble Nogo-B receptor, residues 73*-293*, loop 167-175 removed) (domain or fragment)
chain: RGGSCLAAAHHRMRWRADGRSLEKLPVHMGLVITEVEQEPSFSDIASLVVWCMAVGISYISVYDHQGIFKRNNSRLMDEILKQQQELLGLDCSKDKDDQVLNCHLAVKVLSPEDGKADIVRAAQDFCQLVAQKQKRPTDLDVDTLASLLSSNGCPDPDLVLKFGPVDSTLGFLPWHIRLTEIVSLPSHLNISYEDFFSALRQYAACEQRLGK
B2: binds [1].
